The supplement of paper PMC9170038

Tested on: MS2 coat protein
Assay: apparent KD of MS2 coat protein; higher = weaker reporter binding
Settings: Eterna round: R107
Summary of the method: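 With or without constant ligand, designed RNA switches in 100 mM Tris-HCl pH 7.5, 80 mM KCl and 4 mM MgCl2 were titrated with SNAP-549-labelled MS2 coat protein. Concentrations went up in twofold steps from 0.7 or 1.5 nM to 3 µM. The switches had been transcribed on-chip from Illumina sequencing clusters, and apparent KD is the per-design median of normalised cluster binding-curve fits.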

[1] = input ligand: theophylline 20 uM
[2] = input ligand: tryptophan 2.4 mM
[3] = input ligand: theophylline 2 mM

Sequence	apparent KD of MS2 coat protein (input ligand: arginine 13.2 mM)	apparent KD of MS2 coat protein [1]	apparent KD of MS2 coat protein [2]	apparent KD of MS2 coat protein (input ligand: none)	apparent KD of MS2 coat protein [3]
GGGUGCGGGAUAGAUACCAGUGCCUUAAAAUAGGCACAUGAGGAUCACCCAUGUACCGGGCGCCCUUGGCAGCUAGUACCAUCCA [Edanrele]	93.9 nM	190 nM	147 nM		
AACGUAUACAGAAGGAGCGUGAAUUAUUUUAUUUUUUUAUAAACAUGAGGAUCACCCAUGUCACAGGUAGGUCGCUGUAUUCGUA [JR_ExcArginiB_Sub018]	23.8 nM	40.5 nM	19.2 nM	18.4 nM	22.8 nM
UGACAUGAGGAUCACCCAUGUGUAAGAGAAGGAGCGGCCGGAAGGCCAGGUAGGUCGCUCAGGUAGCGUGAGGAUCACCCGUGUG [big_hook]	81.8 nM	130 nM	35.7 nM	161 nM	97.5 nM
AGGUGCGGCACGGCCGCCACUGCGGUGGUGUGACAUGAGGAUCACCCAUGUUGUCAUGCGGCCCUUAGGACCGGGUGGCGUGCCU [#1 Exclusion - Tryptophan B Attempt #16 (HarryS)]	27.9 nM	64.4 nM			68.9 nM
GCCAUCGGCGGAAGCCGAUGGGAUACAGAAGGAGCGUAGGAAACUACAGGUAGGUCGCUGGACAUGAGGAUCACCCAUGUGAUAG [SSAA #11]	19.6 nM	31.9 nM	22.7 nM	24 nM	31.6 nM
GAGUAGAGGACGGCCGCCACUGAACAUGAGGAUCACCCAUGUCGUGAUCCGUUACCUAGGGUAGAUAGGACCGGGUCAUGUACUC [Exclusion Tryptophan B GF 18]	37.2 nM	68.8 nM			56.7 nM
UACUUGCUGACGGCCGCCACUAGAACAUGAGGAUCACCCAUGUAUUCUAGUCGUCAUGGGUGGACUAGGACCGGGUCAGCAAGAU [(Trp1)-(Ms2)-(T)'-(M)'-(Trp2)_Design8]	30.7 nM	41.8 nM	192 nM	33.8 nM	34.7 nM
UACUUGCUGACGGCCGCCACUAGAACAUGAGGAUCACCCAUGUAGGUCCUAGAUUCCUCAUGAACUAGGACCGGGUCAGCAAGAU [(Trp1)-(Ms2)-(T)'-(M)'-(Trp2)_Design15]	53.7 nM	201 nM			221 nM
UCGGGCAGAGCGGCCGCCACUGUUUGGCGUGCGGAUGAAGGAACAUGAGGAUCACCCAUGUAGAUUAGGACCGGGCUUGCGGAGA [ddrmullin]	8.61 nM	18.1 nM	15.9 nM	13.8 nM	15 nM
UGUCUAGUAAUCGAUACCAGCUACAUGAGGAUCACCCAUGUAGUUCGAACGGCCGCAUGUAGCCCUUGGCAGCGAAUAGUUACAU [Onbitelege]	14.2 nM	32.8 nM	18.7 nM		
CGUGAUCCCUGUGAUACCAGAAGUACAUGAGGAUCACCCAUGUCAAACACAAAACCAAGCUUCCCUUGGCAGCAUAGUCGUUAAG [Esmaenbiza]	67.1 nM	240 nM	224 nM		
AUGCAGAGCACGGCCGCCACUCCAUGUAUACAUGAGGAUCACCCAUGUAAUUUGUAUUUUUUAUAGAGGACCGGGUGAAAUGCAA [JR_SSTryptoB_Sub011]	41.4 nM	34.1 nM			36.2 nM
AAUAACAUGAGGAUCACCCAUGUAAAAGAUACCAGAGUGAUGAUCCUCCCUUGGCAGCUUAACGCUGAUUGGAAACAAUCAGCGA [Mat - Same State Theophlline A - Mod of Eli - D1]	34.1 nM	268 nM	67.6 nM		
AACUAAUCACAUGAGGAUCACCCAUGUGAUACCAGCUAAUCCCAAAGCCCUUGGCAGCACCUUUGGGUCCCGGUGUGUUUGAACA [Onceesa]	9.42 nM	12.3 nM	9.33 nM		
UAUAACAUGAGGAUCACCCAUGUAAGUGAUACCAGAUAAAUAAUAGUCCCUUGGCAGCAUAUUGGGAAAAUGUAUAAUAUAUAUU [Same State - Theophylline A (Freestyle 1)]	49.9 nM	72.1 nM	49.4 nM		
CGAUGAUCGAGGGAUACCAGAAAUGGUAUUCCUUUAUUUCUUACAUGAGGAUCACCCAUGUUCCCUUGGCAGCUUUUGAUCAUCG [ETHB #7]	60.5 nM	86.1 nM	74.6 nM		
UGGCGAGAAGGAAGGAGCGUCAGCUGAGUCACAUGAGGAUCACCCAUGUCGCACAUAGUGUGACAGGUAGGUCGCCUUCUGCCCU [Beinmain]	84.9 nM	152 nM	156 nM	134 nM	239 nM
AGAGUCAGACAAAAGUCUGGCUCAGCCGAAGGAGCGUCCGAAAGGACAGGUAGGUCGCGGUUACCUGAGGAUCACCCAGGUUCCU [ArgAS 24 #OpenEnded #AlternativeMS2]	53.8 nM	86.9 nM	91.5 nM	139 nM	115 nM
AUAUGAUCAUGUGAUACCAGAAAUGGUAGUCCUCGCUGGAUUACAUGAGGAUCACCCAUGUUCCCUUGGCAGCAUAUGAUCAUAU [#02 Exclusion-TheophyllineB]	50.5 nM	122 nM	60.9 nM		
